Reference: PMC12216424

Key:
LbCas12a = LbCas12a (UniProt A0A5S8WF58 1-1228); test: thermal shift
[1] = molecular target: LbCas12a (cryo-EM, assembled with crRNA) (UniProt A0A5S8WF58 1-1228); test: cryo-EM structure

B1: PS DNA1 (XNA)
DNA: GCGACTCGGTTCTTGCCTAAG
modifications: all 20 linkages phosphorothioate
B1: binds (LbCas12a).

B2: 12a-crRNA (structured_RNA)
RNA: UAAUUUCUACUAAGUGUAGAUGGGGUUUGAGGUCCAUUACA
B2: binds [1].
